Data set [1] concerns the target T1, α-fructosyl hexapeptide (α-fructosyl-valyl-histidyl-leucyl-threonyl-propyl-glutamic acid).
T1 chain: VHLTPE

Data set [2] concerns the target T2, α-fructosyl valyl histidine.
T2 chain: VH

Substitutions are numbered along the chain they refer to.

B1: CFP-T7-H35 (protein)
chain: MTSNRADTRVIVVGGGGTIGSSTALHLVRSGYAPANITVLDTFEIPSAQSAGHDLNKIMGIDHRNKVDLQMSLEARQMWKEDELFQPFFHNTGRMDCEHTPKGIEKLKKLYQKLHDAGAGLEKTHAWLDNEDEILSKMPLLQRDQIQGWKAIWSQDGGWLAAAKAINAIGQFLKERGVKFGFGGAGSFKQPLFDDEGTTCIGVETADGTKYYADKVVLAAGAWSPTLVDLEDQCCSKAWVYAHIQLTPEEAAEYKGVPVVYNGEFGFFFEPDEFGVIKVCDEFPGFSRFKEHQPYGAPSPKRISVPRSHAKHPTDTYPDASEVSIKKAIATFLPRFQDKELFNRALCWCTDTADSALLMCEHPKWKNFILATGDSGHSFKILPNVGKYVVELIEGRLPEEMAYQWRWRPGGDALKSRRAAPPKDLADMPGWKHDPKL
With B1, in data set [1], the Specific activity (U/mg), 1 mM αF6P came to 4.27 U/mg; the “specific activity on αF6P, fold over FAOAo2 (Present Invention 25/Comparative Example 2)” value is listed as 2 times (Present Invention 26/Comparative Example 3) to 1,940 times (Present Invention 25/Comparative Example 2) greater; the “ΔA at 751 nm (hydrogen peroxide generated upon oxidation of αF6P) against αF6P concentration” value was “a favorable correlation was developed between ΔA and αF6P concentration in the range of αF6P concentration from 0.5 µM to 10 µM”; the αF6P oxidation activity ratio, relative to CFP-T7-H28 = 100 as the table shows (relative (CFP-T7-H28 = 100)) was 206. Besides, the Specific activity (U/mg), 1 mM αFVH in data set [2] was 1.9 U/mg.

B2: CFP-T7-62D (protein)
chain: B1 chain with H63L, K102E, K106D, L110Q, K113A, S355A
For the protein B2, in data set [1], the Specific activity (U/mg), 1 mM αF6P stood at 0.018 U/mg and the “specific activity on αF6P, fold over PnFX (Present Invention 26/Comparative Example 3)” value is given as 2 times (Present Invention 26/Comparative Example 3) to 1,940 times (Present Invention 25/Comparative Example 2) greater. Besides, the Specific activity (U/mg), 1 mM αFVH in data set [2] came out at 1.62 U/mg.

The values above are taken from US20150118700.
